# Measurements from patent US6548060 (dated 2003).
# T1: ASK1 (apoptosis signal-regulating kinase), full-length, Q99683
# T1 chain: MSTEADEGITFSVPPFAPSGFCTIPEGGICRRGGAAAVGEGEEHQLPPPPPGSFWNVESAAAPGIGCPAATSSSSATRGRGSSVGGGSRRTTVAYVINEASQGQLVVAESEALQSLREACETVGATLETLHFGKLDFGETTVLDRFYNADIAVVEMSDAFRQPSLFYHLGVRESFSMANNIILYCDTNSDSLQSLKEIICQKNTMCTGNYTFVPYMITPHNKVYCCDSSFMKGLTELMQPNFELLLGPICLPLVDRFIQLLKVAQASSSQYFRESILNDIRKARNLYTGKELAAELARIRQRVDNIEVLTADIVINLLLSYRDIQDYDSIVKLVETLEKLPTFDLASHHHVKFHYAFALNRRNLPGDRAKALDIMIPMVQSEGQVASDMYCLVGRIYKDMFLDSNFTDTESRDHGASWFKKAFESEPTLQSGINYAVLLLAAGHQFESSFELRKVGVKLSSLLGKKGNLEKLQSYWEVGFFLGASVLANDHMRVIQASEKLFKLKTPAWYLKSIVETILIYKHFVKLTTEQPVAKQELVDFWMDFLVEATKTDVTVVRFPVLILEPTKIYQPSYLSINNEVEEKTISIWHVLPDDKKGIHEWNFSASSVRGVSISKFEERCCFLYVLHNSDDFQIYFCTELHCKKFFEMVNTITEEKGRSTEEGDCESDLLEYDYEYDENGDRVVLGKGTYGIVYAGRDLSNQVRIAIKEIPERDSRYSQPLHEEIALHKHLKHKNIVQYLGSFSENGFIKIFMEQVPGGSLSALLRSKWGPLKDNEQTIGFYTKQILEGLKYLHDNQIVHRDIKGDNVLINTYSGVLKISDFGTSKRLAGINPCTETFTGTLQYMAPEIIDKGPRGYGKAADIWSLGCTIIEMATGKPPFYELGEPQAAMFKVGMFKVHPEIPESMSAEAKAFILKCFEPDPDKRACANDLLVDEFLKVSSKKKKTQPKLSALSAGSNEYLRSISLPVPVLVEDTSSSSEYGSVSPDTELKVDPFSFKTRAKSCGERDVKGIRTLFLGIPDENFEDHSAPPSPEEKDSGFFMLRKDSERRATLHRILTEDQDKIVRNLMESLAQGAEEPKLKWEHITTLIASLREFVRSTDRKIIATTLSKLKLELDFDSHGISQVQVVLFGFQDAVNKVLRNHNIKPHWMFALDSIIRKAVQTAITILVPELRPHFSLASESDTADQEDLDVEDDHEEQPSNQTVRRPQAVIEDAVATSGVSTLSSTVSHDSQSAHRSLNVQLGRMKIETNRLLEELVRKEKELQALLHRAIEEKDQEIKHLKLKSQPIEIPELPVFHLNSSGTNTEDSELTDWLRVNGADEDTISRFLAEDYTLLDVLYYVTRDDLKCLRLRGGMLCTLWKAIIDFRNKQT
# T2: N-terminal 236 aa extension of human glutaminyl-tRNA synthetase, P47897
# T2 chain: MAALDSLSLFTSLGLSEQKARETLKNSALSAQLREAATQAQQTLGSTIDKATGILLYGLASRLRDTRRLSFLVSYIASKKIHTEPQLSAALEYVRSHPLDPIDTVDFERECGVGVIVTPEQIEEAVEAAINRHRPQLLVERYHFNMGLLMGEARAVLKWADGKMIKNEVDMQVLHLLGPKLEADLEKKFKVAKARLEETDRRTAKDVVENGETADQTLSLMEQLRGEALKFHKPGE
# B1: human glutaminyl-tRNA synthetase, full-length (protein)
# chain: MAALDSLSLFTSLGLSEQKARETLKNSALSAQLREAATQAQQTLGSTIDKATGILLYGLASRLRDTRRLSFLVSYIASKKIHTEPQLSAALEYVRSHPLDPIDTVDFERECGVGVIVTPEQIEEAVEAAINRHRPQLLVERYHFNMGLLMGEARAVLKWADGKMIKNEVDMQVLHLLGPKLEADLEKKFKVAKARLEETDRRTAKDVVENGETADQTLSLMEQLRGEALKFHKPGENYKTPGYVVTPHTMNLLKQHLEITGGQVRTRFPPEPNGILHIGHAKAINFNFGYAKANNGICFLRFDDTNPEKEEAKFFTAICDMVAWLGYTPYKVTYASDYFDQLYAWAVELIRRGLAYVCHQRGEELKGHNTLPSPWRDRPMEESLLLFEAMRKGKFSEGEATLRMKLVMEDGKMDPVAYRVKYTPHHRTGDKWCIYPTYDYTHCLCDSIEHITHSLCTKEFQARRSSYFWLCNALDVYCPVQWEYGRLNLHYAVVSKRKILQLVATGAVRDWDDPRLFTLTALRRRGFPPEAINNFCARVGVTVAQTTMEPHLLEACVRDVLNDTAPRAMAVLESLRVIITNFPAAKSLDIQVPNFPADETKGFHQVPFAPIVFIERTDFKEEPEPGFKRLAWGQPVGLRHTGYVIELQHVVKGPSGCVESLEVTCRRADAGEKPKAFIHWVSQPLMCEVRLYERLFQHKNPEDPTEVPGGFLSDLNLASLHVVDAALVDCSVALAKPFDKFQFERLGYFSVDPDSHQGKLVFNRTVTLKEDPGKV
# B2: C-terminal 539 aa catalytic domain of human glutaminyl-tRNA synthetase (protein)
# chain: NYKTPGYVVTPHTMNLLKQHLEITGGQVRTRFPPEPNGILHIGHAKAINFNFGYAKANNGICFLRFDDTNPEKEEAKFFTAICDMVAWLGYTPYKVTYASDYFDQLYAWAVELIRRGLAYVCHQRGEELKGHNTLPSPWRDRPMEESLLLFEAMRKGKFSEGEATLRMKLVMEDGKMDPVAYRVKYTPHHRTGDKWCIYPTYDYTHCLCDSIEHITHSLCTKEFQARRSSYFWLCNALDVYCPVQWEYGRLNLHYAVVSKRKILQLVATGAVRDWDDPRLFTLTALRRRGFPPEAINNFCARVGVTVAQTTMEPHLLEACVRDVLNDTAPRAMAVLESLRVIITNFPAAKSLDIQVPNFPADETKGFHQVPFAPIVFIERTDFKEEPEPGFKRLAWGQPVGLRHTGYVIELQHVVKGPSGCVESLEVTCRRADAGEKPKAFIHWVSQPLMCEVRLYERLFQHKNPEDPTEVPGGFLSDLNLASLHVVDAALVDCSVALAKPFDKFQFERLGYFSVDPDSHQGKLVFNRTVTLKEDPGKV
# B3: ASK1 (apoptosis signal-regulating kinase), full-length (protein)
# chain: T1 chain
# Columns and labels:
# [1] = target: ASK1 (apoptosis signal-regulating kinase), full-length (UniProt Q99683); assay: cell-based or functional assay
# [2] = target: T1, ASK1 (apoptosis signal-regulating …)
# [3] = target: T2, N-terminal 236 aa extension of human …
# [4] = target: constitutive active mutant of Daxx, C-terminal 242 aa, Q9UER7
# Sequence of constitutive active mutant of Daxx, C-terminal 242 aa, Q9UER7 (Q9UER7 whole entry, looked up, change not shown): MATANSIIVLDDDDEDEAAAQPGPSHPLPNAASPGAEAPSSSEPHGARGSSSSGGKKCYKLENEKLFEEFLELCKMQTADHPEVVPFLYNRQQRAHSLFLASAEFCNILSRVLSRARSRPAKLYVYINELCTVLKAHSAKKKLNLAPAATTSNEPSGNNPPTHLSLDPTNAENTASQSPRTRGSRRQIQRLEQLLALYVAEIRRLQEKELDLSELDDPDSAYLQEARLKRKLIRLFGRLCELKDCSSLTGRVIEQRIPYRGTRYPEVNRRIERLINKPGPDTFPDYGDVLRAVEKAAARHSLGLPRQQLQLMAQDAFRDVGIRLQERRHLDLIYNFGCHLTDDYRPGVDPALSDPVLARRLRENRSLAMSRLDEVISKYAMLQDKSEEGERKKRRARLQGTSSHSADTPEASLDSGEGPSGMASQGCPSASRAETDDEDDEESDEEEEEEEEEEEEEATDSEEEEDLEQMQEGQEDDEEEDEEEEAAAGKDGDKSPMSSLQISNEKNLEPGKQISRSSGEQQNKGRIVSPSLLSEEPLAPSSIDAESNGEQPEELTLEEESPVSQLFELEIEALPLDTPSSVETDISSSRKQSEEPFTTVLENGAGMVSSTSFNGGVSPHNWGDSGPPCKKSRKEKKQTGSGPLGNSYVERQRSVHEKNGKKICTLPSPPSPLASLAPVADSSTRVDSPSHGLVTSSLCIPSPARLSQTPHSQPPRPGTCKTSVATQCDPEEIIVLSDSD
molecule,measurement,setting,value
"constitutive active mutant of Daxx, C-terminal 242 aa (from UniProt Q9UER7 499-740)","apoptotic cells (HeLa, beta-galactosidase co-transfection, apoptotic morphology)",[1],11%
B1,ASK1 kinase activity enhanced by Daxx-CA (GST-SEK1 as substrate),[2],QRS inhibited the ASK1 activity enhanced by Daxx
same,"kinase activity of ASK1 (MBP phosphorylation, immunocomplex kinase assay)",[2],The ASK1 activity was inhibited by the expression of QRS-F and -C but not of QRS -N
B2,"kinase activity of ASK1 (MBP phosphorylation, immunocomplex kinase assay)",[2],The ASK1 activity was inhibited by the expression of QRS-F and -C but not of QRS -N
B3,"kinase activity of ASK1 (MBP phosphorylation, immunocomplex kinase assay)",[3],The ASK1 activity was inhibited by the expression of QRS-F and -C but not of QRS -N
same,ASK1 kinase activity (GST-SEK1 as substrate),[4],The active mutant of Daxx (Daxx-CA) activated ASK1
